Measurements as given in US20190177431A1 (FUDAN UNIVERSITY, published 2019).
Read-outs that look alike come from different tables or passages of the source.

T1: murine TF (B16-F10 cells) (murine, UniProt P20352 29-294)
T1 construct: whole, on cells
T1 sequence (looked up): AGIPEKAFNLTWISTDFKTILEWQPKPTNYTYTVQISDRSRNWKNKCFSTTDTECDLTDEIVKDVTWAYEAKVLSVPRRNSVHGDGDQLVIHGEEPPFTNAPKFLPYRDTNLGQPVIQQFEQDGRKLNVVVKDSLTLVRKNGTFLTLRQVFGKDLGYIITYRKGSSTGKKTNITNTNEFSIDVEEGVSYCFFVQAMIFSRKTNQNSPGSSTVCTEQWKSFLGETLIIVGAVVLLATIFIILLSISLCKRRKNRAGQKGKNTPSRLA

B1: TF-mAb-SC1 (antibody, V domains shown)
VH: QVQLQQPGAELVRPGASVKLSCKASGYSFISYWMNWVKQRPGQGLEWIGMIYPADSETRLNQKFKDKATLTVDKSSSTAYMQLSSPTSEDSAVYYCAREDYGSSDYWGQGTTLTVSS
VL: EILLTQSPAIIAASPGEKVTITCSASSSVSYMNWYLQKPGSSPKIWIYGISNLASGVPARFSGSGSGTSFSFTINSMETEDVATYYCQQKSSFPWTFGGGTKLEIK
B2: TF-mAb-Ch (antibody, V domains shown)
VH: B1 VH
VL: B1 VL
notes: Variable regions of TF-mAb-SC1 cloned into vectors with human IgG1 heavy chain constant region and human kappa constant region; also called human-mouse chimeric antibody; chimeric antibody TF-mAb-Ch

What was measured:
[1] = molecular target: T2, human TF on the cell surface of tumor cells (human, UniProt P13726 33-295); experiment: flow cytometry on MDA-MB-231 cells
T2 construct: whole, on cells; Endogenous TF on TF-positive human tumor cell lines; also called cell surface TF

[2] = molecular target: T2, human TF on the cell surface of tumor …; experiment: flow cytometry on BxPC-3 cells
Experimental: (§1) The cells were washed with PBS twice to remove the unbound primary antibody, and the target cells were incubated with 200 μL PE-labeled secondary antibody (2 μg/mL) at 4° C. for 30 min. The cells were washed with PBS twice to remove the unbound secondary antibody, and finally the cells were re-suspended in 400 μL PBS.

[3] = molecular target: T2, human TF on the cell surface of tumor …; experiment: cell-based or functional assay
[4] = molecular target: T1, murine TF (B16-F10 cells); experiment: flow cytometry on B16-F10 cells
From the text: After preliminary screening, about 30 hybridoma cells were selected for secondary limiting dilution cloning, and then 6 antibodies were selected for large-scale expression and purification.

[5] = molecular target: T2, human TF on the cell surface of tumor …; experiment: flow cytometry on U87MG cells
Experimental: as §1

[6] = molecular target: T3, extracellular domain of human TF protein (human, UniProt P13726 34-251); experiment: ELISA, coated TF extracellular domain
T3 construct: range 34-251; Limits 34-251 are stated for the immunogen; also called the extracellular domain protein of TF; TF antigen
Experimental: (§2) The antigen (the extracellular domain protein of TF) was diluted to 0.5 μg/mL with a coating solution, and was used to coat an ELISA plate overnight, at 100 μL/well and 4° C. The excessive antigen was removed by washing. The plate was blocked with 2% BSA at room temperature for 2 h, and then each of the 3-fold serial diluted monoclonal antibodies was added at 100 μL/well, and was incubated for 2 h at room temperature. The unbound antibodies were removed by washing, and an appropriate concentration of horseradish peroxidase-labeled anti-mouse secondary antibody was added at 100 μL/well, and incubated for 1 h at room temperature. The unbound secondary antibody was removed by washing, TMB chromogenic solution was added, and the color was developed to an appropriate color depth. 2M H₂SO₄ was added at 50 μL/well, to stop the chromogenic reaction, the absorbance at 450 nm was then determined, and the data was analyzed.

[7] = molecular target: T2, human TF on the cell surface of tumor …; experiment: flow cytometry on MDA-MB-231 cells, antibody at 10 µg/mL; design: reference not given here
Experimental: as §1

[8] = molecular target: T2, human TF on the cell surface of tumor …; experiment: flow cytometry on HCC1806 cells
[9] = molecular target: T2, human TF on the cell surface of tumor …; experiment: flow cytometry on MDA-MB-231 cells, antibody at 1 µg/mL
Experimental: as §1

[10] = molecular target: T3, extracellular domain of human TF protein; experiment: ELISA, coated TF extracellular domain; remark: listed apart in the source
Experimental: as §2
Firstly, the 20 humanized antibodies were determined for their affinity for the extracellular domain protein of TF by ELISA binding assay (The experimental method refers to Step \textcircled{4} of Example 1).

| Binder | EC50 [1] [nM] | EC50 [2] [nM] | IC50 of inhibiting FXa production (BxPC-3 cells) [3] [nM] | IC50 of inhibiting FXa production (MDA-MB-231 cells) [3] [nM] | binding result [4] | EC50 [5] [nM] | EC50 [6] [nM] | MFI [7] | EC50 [8] [nM] | MFI [9] | EC50 [10] [nM] |
| --- | --- | --- | --- | --- | --- | --- | --- | --- | --- | --- | --- |
| B1 | 2.5 | 2.6 | 9 | 6.4 | no binding (tested: 10 µg/mL) | 1.6 | ~0.019 | – | – | – | – |
| B2 | 2.3 | – | – | – | – | – | ~0.011 | 3540 | 2.1 | 3370 | 0.01 |
